Test results as given in US20240182563A1 (GENOME, published 2024).

Experiments:
mouse CNTN4-10xHis = biological target: T1, mouse CNTN4-10xHis (mouse, UniProt Q69Z26 19-1000); experiment: ELISA, plate coated with CNTN4-10xHis, anti-human Fc-HRP
T1 sequence: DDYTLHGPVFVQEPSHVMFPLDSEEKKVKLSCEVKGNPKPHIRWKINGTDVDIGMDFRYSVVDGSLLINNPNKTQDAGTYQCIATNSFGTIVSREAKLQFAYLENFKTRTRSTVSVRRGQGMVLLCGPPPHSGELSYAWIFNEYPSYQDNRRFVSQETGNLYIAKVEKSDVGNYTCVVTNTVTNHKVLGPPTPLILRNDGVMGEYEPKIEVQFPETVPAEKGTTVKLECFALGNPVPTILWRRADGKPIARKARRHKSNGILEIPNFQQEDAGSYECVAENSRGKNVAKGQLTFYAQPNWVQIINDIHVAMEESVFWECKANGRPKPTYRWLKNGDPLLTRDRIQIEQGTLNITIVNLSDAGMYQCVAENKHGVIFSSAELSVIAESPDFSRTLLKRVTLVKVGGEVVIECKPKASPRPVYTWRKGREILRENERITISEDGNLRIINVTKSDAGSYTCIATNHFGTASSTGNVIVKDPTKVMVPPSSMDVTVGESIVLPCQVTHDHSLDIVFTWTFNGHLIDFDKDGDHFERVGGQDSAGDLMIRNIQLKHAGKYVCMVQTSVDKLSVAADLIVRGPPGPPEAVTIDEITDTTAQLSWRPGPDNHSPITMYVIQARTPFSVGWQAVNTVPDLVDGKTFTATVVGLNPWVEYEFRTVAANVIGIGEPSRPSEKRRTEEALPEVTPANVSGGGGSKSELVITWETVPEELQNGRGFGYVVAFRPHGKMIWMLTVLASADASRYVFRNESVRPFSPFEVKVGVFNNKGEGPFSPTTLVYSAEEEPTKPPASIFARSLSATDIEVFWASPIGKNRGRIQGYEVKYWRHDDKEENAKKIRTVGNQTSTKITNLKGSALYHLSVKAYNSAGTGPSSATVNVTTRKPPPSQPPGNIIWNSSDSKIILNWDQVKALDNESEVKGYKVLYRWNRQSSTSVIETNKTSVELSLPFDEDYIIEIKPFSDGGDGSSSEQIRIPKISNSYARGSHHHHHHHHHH
Protocol: The LAH2, L1H2, and L2H2 antibodies prepared in Example 3.1 were subjected to an ELISA test together with A-01. An ELISA plate was coated with 200 ng of antigens (human CNTN4-10xHis or mouse CNTN4-10xHis). For antibody binding, antibodies were serially diluted from a maximum of 1 μM to 0.0001 nM, thereby binding to the antigen. Anti-human Fc-HRP was used as a secondary antibody for antibody detection. Color was developed using ABTS, which is a color developing reagent, and the absorbance at 405 nm was measured.

Human CNTN-4 protein = biological target: T2, Human CNTN-4 protein (human, UniProt Q8IWV2 19-1000, limits assumed); experiment: SPR, antibody captured by anti-human IgG Fc on CM5 chip, CNTN4 as analyte
T2 construct: soluble antigen run over the captured antibody; also called human CNTN4 (SPR analyte)
T2 sequence (looked up): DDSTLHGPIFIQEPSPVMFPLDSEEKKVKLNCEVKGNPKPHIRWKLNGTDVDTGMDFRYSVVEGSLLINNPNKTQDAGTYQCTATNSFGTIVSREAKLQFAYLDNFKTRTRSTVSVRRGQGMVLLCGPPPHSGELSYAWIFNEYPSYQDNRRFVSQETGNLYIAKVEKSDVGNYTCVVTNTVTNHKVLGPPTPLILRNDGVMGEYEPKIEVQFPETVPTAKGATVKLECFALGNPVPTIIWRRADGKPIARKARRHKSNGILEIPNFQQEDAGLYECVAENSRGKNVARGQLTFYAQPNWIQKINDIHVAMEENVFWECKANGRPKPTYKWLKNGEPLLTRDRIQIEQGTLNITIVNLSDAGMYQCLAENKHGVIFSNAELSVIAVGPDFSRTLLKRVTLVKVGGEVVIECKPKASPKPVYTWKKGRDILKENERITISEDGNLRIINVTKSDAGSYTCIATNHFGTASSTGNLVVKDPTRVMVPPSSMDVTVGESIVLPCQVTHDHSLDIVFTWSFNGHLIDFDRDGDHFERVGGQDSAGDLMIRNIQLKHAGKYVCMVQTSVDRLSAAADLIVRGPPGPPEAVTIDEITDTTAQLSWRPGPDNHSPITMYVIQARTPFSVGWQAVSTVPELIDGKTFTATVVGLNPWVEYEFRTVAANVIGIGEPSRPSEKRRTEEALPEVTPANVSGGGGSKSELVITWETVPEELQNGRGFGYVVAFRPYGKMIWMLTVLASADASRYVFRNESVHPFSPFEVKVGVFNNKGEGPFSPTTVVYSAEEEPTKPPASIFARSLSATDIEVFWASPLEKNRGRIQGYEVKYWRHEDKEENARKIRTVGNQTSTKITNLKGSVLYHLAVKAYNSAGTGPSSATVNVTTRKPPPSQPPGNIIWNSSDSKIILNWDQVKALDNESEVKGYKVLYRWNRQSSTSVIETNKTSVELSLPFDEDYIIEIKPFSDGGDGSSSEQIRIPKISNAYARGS
Protocol: Specifically, in order to bind anti-human IgG Fc (capture antibody) using amine coupling, CM5 chip was mounted, running buffer was allowed to flow, the chip was activated, and then capture antibody was attached thereto. Dextrin to which capture antibody was not attached was deactivated using ethanolamine, and then regeneration was performed using 3M magnesium chloride to clear analyte except capture antibody. The A-01 prepared at a concentration of 0.05 μg/mL was allowed to flow for 30 seconds at a rate of 10 μL/min for binding. Thereafter, human CNTN4 (400 nM to 0.78 nM) prepared by sequential dilution as an antigen was allowed to flow at a rate of 30 μL/min for 3 minutes to be bound, and dissociation was performed for 5 minutes. Then, in order to clear all analytes attached to the capture antibody, a regeneration solution (3M magnesium chloride) was allowed to flow at a rate of 20 μL/min for 30 seconds, and regeneration was performed. For each concentration of antigen, binding of A-01, binding of antigen, dissociation, and regeneration were repeated in order.

- EC50 (mouse CNTN4-10xHis): 0.011 nM
- Kd (Human CNTN-4 protein): 33.6 nM
B1: anti-CNTN4 129 chimeric IgG4-S228P (antibody, V domains shown)
VH: AVTLDESEGGLQTPGGALSLVCKASGFTFSSFNMFWVRQAPGKGLEYVAEISGGGGSTWYAPAVKGRATISRDNGQSTVRLQLNNLRAEDTGTYYCAKSADTWSYGAATIDAWGHGTEVIVSS
VL: ALTQPSSVSANLGETVKITCSGSSGSYGWYQQKSPGSAPVTLIYDNTNRPSDIPSRFSGSGSGSTGTLTITGVRAEDEAVYYCGGYDGSTDVFGAGTTLTVL
notes: chicken-human chimeric IgG4-S228P made from S129, kappa light chain constant region (Kappa select); also called A-01; LAHA
